# Laboratory results as given in patent US20240293499A1 (SUNNYBROOK RESEARCH INSTITUTE, published 2024).
# T1: human VISTA on primary human immune cells (CD14+CD16- classical monocytes of PBMCs) (human, UniProt Q9H7M9 33-311)
# T1 construct: whole, on cells; Native protein on donor cells; also called hVISTA
# T1 sequence (looked up): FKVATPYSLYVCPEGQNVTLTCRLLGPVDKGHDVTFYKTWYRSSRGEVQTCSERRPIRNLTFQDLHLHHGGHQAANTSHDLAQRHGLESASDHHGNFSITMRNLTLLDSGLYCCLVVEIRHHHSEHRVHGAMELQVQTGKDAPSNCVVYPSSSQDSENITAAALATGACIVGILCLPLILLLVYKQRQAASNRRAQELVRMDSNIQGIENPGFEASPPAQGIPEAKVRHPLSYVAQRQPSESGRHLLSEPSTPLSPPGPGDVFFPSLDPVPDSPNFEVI
# T2: mVISTA-COMP-his, pentameric form comprising the extracellular IgV domain of murine VISTA (mouse, UniProt Q9D659 33-191)
# T2 construct: domain: extracellular IgV domain; Captured on an anti-histidine chip for SPR of the mAbs; also called recombinant mouse VISTA; not shown: his tag
# T2 sequence (Q9D659 whole entry, looked up): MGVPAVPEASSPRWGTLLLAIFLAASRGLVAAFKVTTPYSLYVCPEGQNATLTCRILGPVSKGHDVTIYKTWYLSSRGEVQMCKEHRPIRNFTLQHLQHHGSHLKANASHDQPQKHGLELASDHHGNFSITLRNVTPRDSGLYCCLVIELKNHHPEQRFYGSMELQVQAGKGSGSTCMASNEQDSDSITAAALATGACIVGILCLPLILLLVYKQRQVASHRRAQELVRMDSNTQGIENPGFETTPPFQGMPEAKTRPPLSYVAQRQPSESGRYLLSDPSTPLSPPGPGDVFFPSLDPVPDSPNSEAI
# T3: hVISTA-Fc (produced in house) (human, UniProt Q9H7M9 33-194, limits assumed)
# T3 construct: Analyte in the SPR of the nanobodies; not shown: Fc
# T3 sequence (looked up): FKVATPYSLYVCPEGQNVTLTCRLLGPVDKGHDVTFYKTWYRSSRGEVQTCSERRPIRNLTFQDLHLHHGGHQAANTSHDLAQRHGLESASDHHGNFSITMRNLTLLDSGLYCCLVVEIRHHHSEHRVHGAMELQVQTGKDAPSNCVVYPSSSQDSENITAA
# B1: murine anti-hVISTA mAb 7E12 (antibody, V domains shown)
# VH: DVHLQESGPGLVKPSQSLSLTCSVTGYSITSGYYWNWIRQFPGNKLEWMGYISYDGNNNYNPSLKNRISITRDTSKNQFFLKLNSVTTEDTATYYCARGDYGSEAMDYWGQGTSVTVSS
# VL: DIRVTQSPASLAVSLGQRATISCRASKSVSTSGYSYMNWYQQKPGQPPQLLIYLASNLESGVPARFSGSGSGTDFTLNIHPVEEEDAAIYYCQHSRELPWTFGGGTKLEIK
# notes: Mouse IgG1 purified from hybridoma
# B2: murine anti-hVISTA mAb 8G10 (antibody, V domains shown)
# VH: QVQLQQSGAELVRPGASVTLSCKASGYTFTDYEMHWVKQTPVHGLEWIGAIDPETGGTAYNQKFKGKATLTADKSSSTAYMELRSLTSEDSAVYYCTRWSLRPYAMDYWGQGTSVTVSS
# VL: DVVMTHTPLSLPVSLGDQASISCRSSQSLVHNNGNTYLHWYLQKPGQSPKLLIYKVSNRFSGVPDRFSGSGSGTDFTLKISRVEAEDLGLYFCSQSTHVPWTFGGGTKLEIK
# notes: Variable regions only, although headed 'Heavy Chain' and 'Light Chain'; Mouse IgG1 from hybridoma
# B3: murine anti-hVISTA mAb 7G5 (antibody, V domains shown)
# VH: QIQLVQSGPELKKPGETVKISCKASGYTFTNYGMNWVKQAPEKGLKWMGWINTYTGEPTYADDFKGRFAFSLETSASTAYLQINNLKNEDTATYFCARRSNPWPNDYWGQGTSLTVSS
# VL: DIQMTQSPSSFSASLGERVSLTCRASQEISGYLSWLQQKPDGTIKRLIYAASTLDSGVPKRFSGSRSGSDYSLTISSLESEDFADYYCLQYASYPWTFGGGTKLEIK
# notes: as for B2
# B4: rat anti-hmVISTA mAb 7C7 (antibody, V domains shown)
# VH: EVQLVESGGGLVQPGRSLKLSCVASGFTFNKYWMSWTRQAPGKGLEWVASITNSGGNTYYPDSVKGRFTISRDNAQNTLYLQMNSLRSEDTATYYCTLGVDYWGQGAMVTVSS
# VL: DVVMTQTPPSLSVTIGQSVSISCKSSQSLVYSDGKTYLHWLLQSSGRSPKRLIYQVSNLASGVPDRFSGTGSQKDFTLKISRVEAKDLGVYYCAQTTHFPYTFGAGTKLEMK
# notes: Variable regions only; Rat IgG2a from hybridoma
# B5: anti-hVISTA nanobody hVISTANb1 (VHH)
# VHH: QVQLQESGGGLVQPGGSLRLSCAASGSVGTIFSMGWFRQAPGVQREMVATITNSGETNYAAFVKGRFTISRDNAENTVYLQMNSLKPEDTAAYYCNAFDYVGGRTYELPYWGQGTQVTVSS
# notes: Llama nanobody made in E. coli WK6, purified by IMAC, detected with anti-HA
# Columns and labels:
# [1] = molecular target: T4, hVISTA-COMP-his, pentameric form comprising the extracellular IgV domain of human VISTA (human, UniProt Q9H7M9 33-194); assay: SPR (BIAcore T200), single-cycle kinetics; hVISTA-COMP-his captured on anti-His chip, mAb as analyte; 1:1 Langmuir fit
# T4 construct: domain: extracellular IgV domain; not shown: his tag
# Description: (§1) Binding kinetics of mAbs and Nbs to hVISTA and mVISTA were obtained by surface plasmon resonance (SPR) using a BIAcore T200 (Cytiva) and HBS running buffer (20 mM of HEPES pH 7.4, 150 mM NaCl, 0.005% Tween-20, 3.4 mM EDTA). Briefly, anti-histidine antibodies were immobilized on a CM5 chip (29149604; Cytiva) using the His capture kit (28995056; Cytiva) following manufacture's protocol. For mAbs, VISTA was captured by flowing […] of hVISTA-COMP-his or mVISTA-COMP-his at a flow rate of 30 μL/min. Sensorgrams were collected using single-cycle kinetics covering five mAb concentrations (1:2 serial dilutions). For Nbs, solutions of each nanobody ([…]) were flown over an anti-histidine-coated chip. Five concentrations (1:2 serial dilutions) of hVISTA-Fc (produced in house) were then injected at a flow rate of 30 μL/min. KD, Kₒₙ, and Koff were calculated by analyzing the sensorgrams with a 1:1 Langmuir binding model²³ after subtracting reference sensorgrams.
# [2] = molecular target: T4, hVISTA-COMP-his, pentameric form …; assay: SPR (BIAcore T200), single-cycle kinetics, hVISTA-COMP-his captured on anti-His chip, mAb injected at 0.5, 1, 2, 4, 8 nM, 1:1 fit
# Description: as §1
# [3] = molecular target: T1, human VISTA on primary human immune …; assay: flow cytometry on human PBMC, gate CD14+CD16- monocytes, ΔMFI against isotype control, 5 donors; representative histogram against mIgG
# Description: (§2) Binding of mAbs and Nbs to human and murine immune cells were tested using human PBMCs and mouse splenocytes. For binding on human cells, whole human blood was obtained from donors in accordance with guidelines set forth by the Sunnybrook Research Ethics board (REB approval number 443-2017). Human peripheral blood mononuclear cells (PMBCs) were isolated from whole blood using Ficoll Paque PLUS (1.077 g/ml) (17144003; Cytiva). PBMCs had their Fc receptors blocked with Human TruStain FcX (422301; BioLegend) then incubated with 2.5 μg of mAb, mouse IgG1 (401408; BioLegend), or rat IgG2a (400565; BioLegend) or 15 μg Nb for 1 hour at 4° C. After washing with PBS, the PBMCs were incubated with secondary antibodies (1 μL; FITC anti-mouse IgG1, FITC anti-HA, or FITC anti-rat IgG2a; 406605, 901507, or MRG2a-83; BioLegend) or control FITC anti-VISTA antibodies (clone B7H5DS8; 11-1088-42; eBioscience) for 40 minutes at 4° C. […] Finally, the PBMCs were washed and resuspended in 3 μM DAPI (D1306; Thermo Fisher Scientific) and cytometric profiles recorded using a BD LSR II flow cytometer (BD) maintained by The Centre for Flow Cytometry & Scanning Microscopy (CCSM) at Sunnybrook Research Institute (SRI; Sunnybrook Health Sciences Centre, Toronto, ON, Canada). […]
# [4] = molecular target: T4, hVISTA-COMP-his, pentameric form …; assay: SPR (BIAcore T200), single-cycle kinetics, hVISTA-COMP-his captured on anti-His chip, mAb injected at 2, 4, 8, 16, 32 nM, 1:1 fit
# Description: as §1
# [5] = molecular target: T4, hVISTA-COMP-his, pentameric form …; assay: SPR (BIAcore T200), single-cycle kinetics, hVISTA-COMP-his captured on anti-His chip, mAb injected at 1, 2, 4, 8, 16 nM, 1:1 fit
# Description: as §1
# [6] = molecular target: T1, human VISTA on primary human immune …; assay: flow cytometry on human PBMC, gate CD14+CD16- monocytes, ΔMFI against isotype control, 5 donors
# Description: as §2
# [7] = molecular target: T2, mVISTA-COMP-his, pentameric form …; assay: SPR (BIAcore T200), single-cycle kinetics; mVISTA-COMP-his captured on anti-His chip, mAb as analyte; 1:1 Langmuir fit
# Description: as §1
# [8] = molecular target: T4, hVISTA-COMP-his, pentameric form …; assay: SPR (BIAcore T200), single-cycle kinetics, hVISTA-COMP-his captured on anti-His chip, mAb injected at 20, 40, 80, 160, 320 nM, 1:1 fit
# Description: as §1
# [9] = molecular target: T2, mVISTA-COMP-his, pentameric form …; assay: SPR (BIAcore T200), single-cycle kinetics, mVISTA-COMP-his captured on anti-His chip, mAb injected at 20, 40, 80, 160, 320 nM, 1:1 fit
# Description: as §1
# [10] = molecular target: T3, hVISTA-Fc (produced in house); assay: SPR (BIAcore T200), single-cycle kinetics, Nb captured on anti-His chip, hVISTA-Fc injected at 1.9, 3.8, 7.5, 15, 30 nM, 1:1 fit
# Description: as §1
# [11] = molecular target: T3, hVISTA-Fc (produced in house); assay: SPR (BIAcore T200), single-cycle kinetics; Nb captured on anti-His chip, hVISTA-Fc as analyte; 1:1 Langmuir fit
# Description: as §1
binder,measurement,setting,value
B1,Kd,[1],0.44 nM
same,Kd,[2],0.442 nM
same,koff,[2],0.000123 s⁻¹
same,kon,[2],279000 M⁻¹ s⁻¹
B2,Kd,[1],0.98 nM
same,binding result,[3],binds
same,Kd,[4],0.98 nM
same,koff,[4],0.000111 s⁻¹
same,kon,[4],113000 M⁻¹ s⁻¹
B3,Kd,[1],0.14 nM
same,Kd,[5],0.136 nM
same,binding result,[6],binds
B4,Kd,[7],51 nM
same,Kd,[1],49 nM
same,Kd,[8],49.4 nM
same,koff,[8],2.2 s⁻¹
same,kon,[8],4.45e+07 M⁻¹ s⁻¹
same,Kd,[9],50.5 nM
same,koff,[9],0.002 s⁻¹
same,kon,[9],39600 M⁻¹ s⁻¹
B5,Kd,[10],10.8 nM
same,koff,[10],0.00109 s⁻¹
same,kon,[10],102000 M⁻¹ s⁻¹
same,Kd,[11],11 nM
